Data from patent US20240150489A1 (ICHNOS SCIENCES, published 2024).

Experiments:
[1] = biological target: T1, recombinant cynomolgus monkey CD38-ECD-C-his (cynomolgus monkey, UniProt Q5VAN0 45-301); assay: SPR, Fab captured as ligand, cyno CD38 analyte
T1 construct: Extracellular region fused to 6-His; also called cyno CD38-C-His; recombinant cynomolgus monkey CD38 protein
Experimental: (§1) Affinities of the Fab to human and cynomolgus CD38 using the Fab as ligand were measured on a Biacore T200 instrument (Biacore, GE Healthcare) at 25° C. and analyzed with the BiacoreT200 Evaluation Software (v3.1). […] The affinities to human and cynomolgus monkey CD38 were assessed by immobilizing Fab fragments and using human or cynomolgus monkey CD38 protein as analyte. Around 50-200 RU of Fab was captured on flow-path 2 of a Series S CM5 Sensor Chip coupled with anti-human Fab antibodies. Human or cynomolgus monkey CD38 was injected in multi cycle kinetic at different concentrations ranging from 0.2 to 100 nM, in HBS-EP+ buffer (Biacore, GE Healthcare, catalog NO: BR100669) at a flow rate of 30 μl/min for 5 min on flow-path 1 and 2 (flow-path 1 being used as reference). Dissociation was monitored for 10 min. […] Experimental data were processed using the 1:1 Langmuir kinetic fitting model. Measurements included zero-concentration samples for referencing. Chi², U- and residual values were used to evaluate the quality of a fit between the experimental data and individual binding models.

[2] = biological target: T2, recombinant human CD38-ECD-C-his (human, UniProt P28907 43-300); assay: SPR, Fab captured as ligand, CD38 analyte
T2 construct: Extracellular region fused to 6-His, made in house; also called human CD38-C-His; recombinant human CD38 protein
Experimental: as §1

[3] = biological target: T1, recombinant cynomolgus monkey …; assay: SPR, His-captured cyno CD38, Fab as analyte
[4] = biological target: T3, recombinant biotinylated human CD38 Avitag, His Tag (Acrobiosystems, CD8-H82E7) (human, UniProt P28907 43-300, biotinylated (Avitag)); assay: SPR, biotinylated CD38 captured, Fab as analyte
T3 construct: Bought protein; also called biotinylated human CD38-avi-his protein; biotinylated recombinant human CD38 protein

| Binder | Kd [1] | Kd [2] | Kd [3] | Kd [4] |
| --- | --- | --- | --- | --- |
| anti-CD38-E2-UCP02-F3 FAB (Fab, V domains shown, human IgG1 Fab; also called anti-CD38-E2-F3) VH: QVQLVQSGAEVKKPGSSVKVSCKASGGSFSNYAIGWVRQAPGQGLEWMGRIIPVLDAAHYAQKFQGRVTITADESTSTAYMELSSLRSEDTAVYYCARGLGYYLYSSYYFDIWGQGTLVTVSS VL: not shown |  | 6.13 nM | 2.4 nM | 3.5 nM |
| anti-CD38-E2-UCP02-G8 FAB (Fab, V domains shown, human IgG1 Fab) VH: QVQLVQSGAEVKKPGSSVKVSCKASGGSFSNYAIGWVRQAPGQGLEWMGRIIPALGGVHYAQKFQGRVTITADESTSTAYMELSSLRSEDTAVYYCARGLGYYLYSSYYFDIWGQGTLVTVSS VL: not shown |  | 7.7 nM | 4.2 nM | 5.2 nM |
| anti-CD38-E2-UCP02-D6 FAB (Fab, V domains shown, human IgG1 Fab) VH: QVQLVQSGAEVKKPGSSVKVSCKASGGSFSNYAIGWVRQAPGQGLEWMGRIIPRLDAEHYAQKFQGRVTITADESTSTAYMELSSLRSEDTAVYYCARGLGYYLYSSYYFDIWGQGTLVTVSS VL: not shown |  | 5.35 nM | 1.1 nM | 4.9 nM |
| anti-CD38-E2-UCP02-E7 FAB (Fab, V domains shown, human IgG1 Fab) VH: QVQLVQSGAEVKKPGSSVKVSCKASGGSFSNYAIGWVRQAPGQGLEWMGRIIPALAATHYAQKFQGRVTITADESTSTAYMELSSLRSEDTAVYYCARGLGYYLYSSYYFDIWGQGTLVTVSS VL: not shown |  | 4.66 nM | 1.8 nM | 2.2 nM |
| anti-CD38-420-E2-RecD FAB (Fab, V domains shown, human IgG1 Fab) VH: QVQLVQSGAEVKKPGSSVKVSCKASGLPDATYAIGWVRQAPGQGLEWMGRIIPALGGVHYAQKFQGRVTITADESTSTAYMELSSLRSEDTAVYYCARGLGYYLYSSYYFDIWGQGTLVTVSS VL: not shown | 22.1 nM | 6.7 nM |  |  |
| anti-CD38-B6-MP01-A4 FAB (Fab, V domains shown, human IgG1 Fab) VH: QVQLVQSGAEVKKPGSSVKVSCKASGGPFSDYVINWVRQAPGQGLEWMGRVIPVIDDAYYAQKFQGRVTITADESTSTAYMELSSLRSEDTAVYYCARSRGYYGSFYFDIWGQGTLVTVSS VL: not shown | 828 nM | 227 nM | 229 nM | 84.9 nM |

The next lines start with the values.

| Kd [1] | Kd [2] | Kd [3] | Kd [4] | Binder |
| --- | --- | --- | --- | --- |
| 4.4 nM | 1.6 nM |  |  | anti-CD38-420-E2-RecB FAB (Fab, V domains shown, human IgG1 Fab) VH: QVQLVQSGAEVKKPGSSVKVSCKASGLPDATYAIGWVRQAPGQGLEWMGRIIPALAATHYAQKFQGRVTITADESTSTAYMELSSLRSEDTAVYYCARGLGYYLYSSYYFDIWGQGTLVTVSS VL: not shown |
| 3.9 nM | 1.3 nM |  |  | anti-CD38-420-E2-RecC FAB (Fab, V domains shown, human IgG1 Fab) VH: QVQLVQSGAEVKKPGSSVKVSCKASGLPDATYAIGWVRQAPGQGLEWMGRIIPVLDAAHYAQKFQGRVTITADESTSTAYMELSSLRSEDTAVYYCARGLGYYLYSSYYFDIWGQGTLVTVSS VL: not shown |
| 3.7 nM | 0.9 nM |  |  | anti-CD38-420-E2-RecA FAB (Fab, V domains shown, human IgG1 Fab; also called anti-CD38-E2-RecA) VH: QVQLVQSGAEVKKPGSSVKVSCKASGLPDATYAIGWVRQAPGQGLEWMGRIIPRLDAEHYAQKFQGRVTITADESTSTAYMELSSLRSEDTAVYYCARGLGYYLYSSYYFDIWGQGTLVTVSS VL: not shown |
|  | 16.2 nM | 24.5 nM | 17.6 nM | anti-CD38-E2-UCP02-F8 FAB (Fab, V domains shown, human IgG1 Fab; also called anti-CD38-E2-F8) VH: QVQLVQSGAEVKKPGSSVKVSCKASGGSFSNYAIGWVRQAPGQGLEWMGRIIPSLDAGHYAQKFQGRVTITADESTSTAYMELSSLRSEDTAVYYCARGLGYYLYSSYYFDIWGQGTLVTVSS VL: not shown |
| 5.2 nM | 2.3 nM | 3.33 nM | 0.55 nM | anti-CD38-B6-MP01-D9 FAB (Fab, V domains shown, human IgG1 Fab; also called anti-CD38-B6-D9) VH: QVQLVQSGAEVKKPGSSVKVSCKASGGFFSHYIINWVRQAPGQGLEWMGRVIPVIDDAYYAQKFQGRVTITADESTSTAYMELSSLRSEDTAVYYCARSRGYYGSFYFDIWGQGTLVTVSS VL: not shown |
| 342 nM | 404 nM |  | 101 nM | anti-CD38-B6-MP02-C2 FAB (Fab, V domains shown, human IgG1 Fab) VH: QVQLVQSGAEVKKPGSSVKVSCKASGGHGQQRIINWVRQAPGQGLEWMGRVIPVIDDAYYAQKFQGRVTITADESTSTAYMELSSLRSEDTAVYYCARSRGYYGSFYFDIWGQGTLVTVSS VL: not shown |
